“And” between values parts separate entries of the source, which are not always exact repeats. Equal values may be shown once.
Legend:
[1] = Enzyme activity measurement (peroxidase-coupled, A510), substrate putrescine; assay type: biochemical
Method: (§1) Enzyme activity measurement: The activity of a biogenic amine oxidase was measured by an indirect measurement method of […]. The amine oxidase acts on biogenic amines to degrade the biogenic amines into corresponding aldehydes and hydrogen peroxide. Under the presence of peroxidase, hydrogen peroxide reacts with 4-aminoantipyrine and 2,4,6-tribromo-3-hydroxybenzoic acid to generate a quinone dye. The product has a maximum absorption value at 510 nm, and the magnitude of the activity of the amine oxidase was linearly related to the color intensity of the product within a certain range, so that the activity of the amine oxidase can be measured by measuring the change in A510.
(§2) The reaction was carried out in a 96-well plate. The reaction system included 20 μl of enzyme solution (80 ug·mL^−1) and 100 μl of prepared solution (including 200 mmol·L^−1 potassium phosphate buffer with a pH of 7.6, 1.5 mmol·L^−1 4-aminoantipyrine, and 1 mmol·L^−1 2,4,6-tribromo-3-hydroxybenzoic acid). To initiate the reaction, 20 μL of biogenic amine solution (10 mmol·L^−1) and 70 µL of peroxidase (1.4 mg·mL^−1) were added, the absorbance was measured at 510 nm, the reaction temperature was 37° C., and the reaction time was 10 min. The change in absorbance of 0.01 per minute was defined as one enzyme activity unit (U).
(§3) Definition of specific activity of monoamine oxidase (U/mg): The enzyme activity per milligram of protein.
(§4) The catalytic ability of the monoamine oxidase MAO6^sh before and after purification was measured respectively using a single biogenic amine as a substrate. Systems containing putrescine, tyramine, histamine, cadaverine, phenylethylamine, tryptamine, spermine or spermidine with a concentration of 10 mmol/L were prepared respectively, the pure enzyme in Example 3 was added to the reaction system after adjusting the protein concentration (80 ug/mL, 20 uL) for reacting for 30 min at 37° C., and the results were shown in
(§5) After the enzyme solution purified in Example 3 was respectively incubated for 30 min in water baths at 15° C., 30° C., 35° C., 40° C., 45° C., 50° C., 55° C. and 60° C., the enzyme activity was measured according to the standard enzyme reaction system to determine the stable temperature range thereof, and the results were shown in FIG. 6. […] When the incubation temperature was 50° C., the residual enzyme activity for putrescine was 36.66%, the residual enzyme activity for cadaverine was 30.55%, and the residual enzyme activity for tryptamine was 26.34%.
The reaction system was the same as that of Example 5, except that the pH of the reaction system was respectively adjusted to 3.0-9.0, the enzyme activity of the recombinant enzyme MAO6^sh under different pH reaction conditions was measured, the relative enzyme activity at each temperature was calculated respectively using a single biogenic amine as a substrate at the highest enzyme activity of 100%, and the results were shown in FIG. 7. When putrescine was used as a substrate, the optimal pH for the MAO6^sh was about 5.0-6.0. When the pH was within the range of 3.0-5.0, the enzyme activity […] rapidly with the increase of the pH. However, under alkaline conditions, the tolerance was stronger than the acid tolerance.
(§6) The reaction system was the same as that of Example 5, except that ethanol with different concentrations (0-20% vol) was added respectively. […] When the concentration of ethanol was about 15 vol %, the relative enzyme activities of the monoamine oxidase MAO6^sh for putrescine, tryptamine and cadaverine were 9.57%, 11.21% and 13.67% respectively (FIG. 9).

[2] = Enzyme activity measurement (peroxidase-coupled, A510), substrate tryptamine; assay type: biochemical
Method: as §1, §2, §3, §4, §5, §6

[3] = Enzyme activity measurement (peroxidase-coupled, A510), substrate cadaverine; assay type: biochemical
Method: as §1, §2, §3, §4, §5, §6

[4] = assay type: biochemical
Method: as §1
The reaction was carried out in a 96-well plate. […] To initiate the reaction, 20 μL of biogenic amine solution (10 mmol·L^−1) and 70 µL of peroxidase (1.4 mg·mL^−1) were added, the absorbance was measured at 510 nm, the reaction temperature was 37° C., and the reaction time was 10 min. The change in absorbance of 0.01 per minute was defined as one enzyme activity unit (U).
The catalytic ability of the monoamine oxidase MAO6^sh before and after purification was measured respectively using a single biogenic amine as a substrate. […]

[5] = Degradation in commercially available Huangjiu, tryptamine; assay type: biochemical; conditions: Huangjiu 18% vol, enzyme 200 μg/ml added 1:1, about 28° C., 48 h
Method: (§7) The content of biogenic amines was detected by high-performance liquid chromatography (HPLC).
(§8) The recombinant monoamine oxidase MAO6^sh prepared in Example 3 was subjected to ultrafiltration and concentration to adjust the protein concentration to 200 μg/ml, and then added to the Huangjiu in a ratio of 1:1 for reacting at a room temperature of about 28° C. for 48 h. The control group was commercially available Huangjiu (18% vol) without enzymes, and the total content of biogenic amines in the control group was 136.2 mg·L^−1.

[6] = Degradation in commercially available Huangjiu, putrescine; assay type: biochemical; conditions: Huangjiu 18% vol, enzyme 200 μg/ml added 1:1, about 28° C., 48 h
Method: as §7, §8

[7] = Degradation in commercially available Huangjiu, phenylethylamine; assay type: biochemical; conditions: Huangjiu 18% vol, enzyme 200 μg/ml added 1:1, about 28° C., 48 h
Method: as §7, §8

[8] = Degradation in commercially available Huangjiu, cadaverine; assay type: biochemical; conditions: Huangjiu 18% vol, enzyme 200 μg/ml added 1:1, about 28° C., 48 h
Method: as §7, §8

[9] = Degradation in commercially available Huangjiu, histamine; assay type: biochemical; conditions: Huangjiu 18% vol, enzyme 200 μg/ml added 1:1, about 28° C., 48 h
Method: as §7, §8

[10] = Degradation in commercially available Huangjiu, tyramine; assay type: biochemical; conditions: Huangjiu 18% vol, enzyme 200 μg/ml added 1:1, about 28° C., 48 h
Method: as §7, §8

[11] = Degradation in commercially available Huangjiu, spermidine; assay type: biochemical; conditions: Huangjiu 18% vol, enzyme 200 μg/ml added 1:1, about 28° C., 48 h
Method: as §7, §8

[12] = Degradation in commercially available Huangjiu, spermine; assay type: biochemical; conditions: Huangjiu 18% vol, enzyme 200 μg/ml added 1:1, about 28° C., 48 h
Method: as §7, §8

[13] = Degradation in commercially available Huangjiu, total biogenic amines; assay type: biochemical; conditions: Huangjiu 18% vol (control 136.2 mg/L total), enzyme 200 μg/ml added 1:1, about 28° C., 48 h
Method: as §7, §8

[14] = Application in commercially available low-salt soy sauce; assay type: biochemical; conditions: enzyme 200 ug/ml, 25° C., 24-48 h
Method: The recombinant monoamine oxidase MAO6^sh prepared in Example 3 was subjected to ultrafiltration and concentration to adjust the protein concentration to 200 ug/ml, and then added to the commercially available low-salt soy sauce for standing at a room temperature (25° C.) for 24-48 h.

[15] = Application in table vinegar; assay type: biochemical; conditions: enzyme 200 μg/ml, 25° C., 24-48 h
Method: The recombinant monoamine oxidase MAO6^sh prepared in Example 3 was subjected to ultrafiltration and concentration to adjust the protein concentration to 200 μg/ml, and then added to the commercially available table vinegar for standing at a room temperature (25° C.) for 24-48 h.

[16] = Application in fermented sausage; assay type: biochemical; conditions: enzyme 200 μg/ml added to raw material, versus sausage without enzyme
Method: 65-80% of lean meat and 20-35% of fat meat were taken by mass and cleaned, and bones, tendons, myolemma, lymph nodes, blood vessels, lesions and injury sites were removed. The fat meat and the lean meat were separated and cut into 4-5 cm meat pieces. The lean meat and about 5-8% of flake ice were placed in a chopper and chopped for 1-3 min. Based on the mass of pork, […] of sodium nitrite, 2-3% of table salt, 0.2-0.3% of compound phosphate, and 0.05-0.06% of sodium ascorbate were added. Spices, pepper, garlic, chili, and nutmeg were 0.2-0.3% of the raw meat. The recombinant monoamine oxidase MAO6^sh prepared in Example 3 was subjected to ultrafiltration and concentration to adjust the protein concentration to 200 μg/ml, and then added to the sausage raw material for chopping for 1-2 min, and then, the fat meat and about 5-8% of flake ice were added for chopping for 4-6 min. The sausage was pickled and then poured into the sausage casing. The sausage poured into the sausage casing was pickled at 4° C. for 12 h, then heated to 30° C., fermented until the pH decreased to about 5.1, and matured at 14-16° C. for 1-10 d.

[17] = crude enzyme solution, induction at 16° C.
[18] = pure enzyme 80 ug/mL, 10 mmol/L substrate, 37° C., 30 min

B1: MAO6^sh: recombinant flavin-containing monoamine oxidase from Saccharopolyspora hirsuta, amino acid sequence SEQ ID NO. 1, expressed in E. coli BL21/pET28a-MAO6^sh (protein, listed as Saccharopolyspora hirsuta)
chain: MDSYDVVVIGAGFAGLVAARELALRGHAVVVLEARDRIGGRTWTDERLGRRLEMGGTWVHWLQPHVWSEITRYDQRIEPSPSSQAVHWVAGGSAHRGSPEEFDALISPGMDQLARDSRAWFPLPYEPLHRADLDQVDHLSVADYFAGLDLNPVEREVTEGVWAEHFNGPAAVSGYTQAMRWCAAASGNWQLLHQATSGYRLTGGTAALAGAIAADGGAELHLGSVVASVSQDSGGATVSTTDGTSVRARRVICTLPLNVLGTVDFQPALPATKLAASAERTASQGLKTWIRVRGEVAPFTAYAPDSHDLTFVRPEYTVEGDTLLVAFGTRAADLAPDDVDGVARALRVWRDDLEVLEVSGHDWMTDDFSRETWPMQRPEQLTRYLAALQEPHGVVRFAGSDLATGWAGFIDGAVESGLRASRAVQDALRGPRG
Q: For B1, which “residual enzyme activity for putrescine” value ([1]; 30 min incubation at 50° C.) is on record?
A: Its value is 36.66%.

Q: And the “specific enzyme activity for putrescine” value [1, 17]?
A: Its value is 15.66 U/mg.

Q: What about the “relative enzyme activity for putrescine” value ([1]; ethanol about 15 vol %) of the same molecule?
A: The value was 9.57%.

Q: What about the “relative enzyme activity for putrescine” value ([1]; ethanol lower than 10% vol) of the same molecule?
A: Its value is 29.44%.

Q: What about the “specific enzyme activity for putrescine” value [1, 18] of the same molecule?
A: Its value is 161.59 U/mg.

Q: What about the “optimal pH” value ([1]; putrescine as substrate, reaction pH 3.0-9.0) of the same molecule?
A: Its value is 5.0-6.0.

Q: What about the “residual enzyme activity for tryptamine” value ([2]; 30 min incubation at 50° C.) of the same molecule?
A: Its value is 26.34%.

Q: What about the “specific enzyme activity for tryptamine” value [2, 17] of the same molecule?
A: Its value is 13.94 U/mg.

Q: What about the “relative enzyme activity for tryptamine” value ([2]; ethanol about 15 vol %) of the same molecule?
A: The value was 11.21%.

Q: And the “relative enzyme activity for tryptamine” value ([2]; ethanol lower than 10% vol)?
A: Its value is 30.27%.

Q: What about the “specific enzyme activity for tryptamine” value [2, 18] of the same molecule?
A: The value was 149.16 U/mg.

Q: What about the “residual enzyme activity for cadaverine” value ([3]; 30 min incubation at 50° C.) of the same molecule?
A: Its value is 30.55%.

Q: What about the “specific enzyme activity for cadaverine” value [3, 17] of the same molecule?
A: The value was 14.70 U/mg.

Q: What about the “relative enzyme activity for cadaverine” value ([3]; ethanol about 15 vol %) of the same molecule?
A: Its value is 13.67%.

Q: What about the “relative enzyme activity for cadaverine” value ([3]; ethanol lower than 10% vol) of the same molecule?
A: Its value is 35.78%.

Q: And the “specific enzyme activity for cadaverine” value [3, 18]?
A: The value was 146.05 U/mg.

Q: And the residual enzyme activity ([4]; 30 min incubation, incubation temperature exceeds 45° C.)?
A: Its residual enzyme activity is “about 30%”.

Q: And the optimal temperature ([4]; most suitable substrate, reaction temperatures 25-60° C.)?
A: The optimal temperature was 45-50 °C.

Q: And the “Degradation rate, Tryptamine” value [5]?
A: The value was 54.07% and 54.06%.

Q: What about the “Degradation rate, Tryptamine” value ([5]; listed as recombinant enzyme) of the same molecule?
A: Its value is 54.07%.

Q: And the “Degradation rate, Putrescine” value [6]?
A: The value was 33.76%.

Q: And the “Degradation rate, Phenylethylamine” value [7]?
A: The value was 5.78%.

Q: What about the “Degradation rate, Cadaverine” value [8] of the same molecule?
A: Its value is 43.78%.

Q: And the “Degradation rate, Histamine” value [9]?
A: The value was 21.44%.

Q: What about the “Degradation rate, Tyramine” value [10] of the same molecule?
A: Its value is 19.31%.

Q: What about the “Degradation rate, Spermidine” value [11] of the same molecule?
A: The value was 8.51%.

Q: And the “Degradation rate, Spermine” value [12]?
A: Its value is 7.75%.

Q: And the “degradation rate for total biogenic amines” value [13]?
A: The value was 25.56%.

Q: And the “reduction of content of biogenic amines” value [14]?
A: The value was “effectively reduce the content of biogenic amines”.

Q: What about the “reduction of content of biogenic amines” value [15] of the same molecule?
A: Its value is “effectively reduce the content of biogenic amines”.

Q: And the “reduction of content of biogenic amines” value [16]?
A: The value was “effectively reduce the content of biogenic amines”.

From patent US20250366499A1, “Flavin-Containing Monoamine Oxidase MAO6sh Capable of Degrading Biogenic Amines and Application Thereof” (Jiangnan University, priority 2024, published 2025)
